Results: paper doi:10.1101/2023.07.22.550149
One block for each substance: values may come before it.

Columns and labels:
Assay in all cases: cryo-EM structure
[1] = target: H. catenoides kalium channelrhodopsin (HcKCR1), wildtype (Hyphochytrium catenoides)
[2] = target: higher potassium selective channelrhodopsin (B1ChR2) from Bilabrum sp (Bilabrum sp)
[3] = target: sodium selective channelrhodopsin HcCCR from H. catenoides (Hyphochytrium catenoides)

stoichiometry N [1]: 3
Substance: H. catenoides kalium channelrhodopsin (HcKCR1), wildtype (natural protein)

stoichiometry N [2]: 3
Substance: higher potassium selective channelrhodopsin (B1ChR2) from Bilabrum sp (natural protein)

stoichiometry N [3]: 3
Substance: sodium selective channelrhodopsin HcCCR from H. catenoides (natural protein)
